Earlier results as cited in paper PMC11544004.

How the values were obtained:
CD80 (Homo sapiens) = CD80 (Homo sapiens) (UniProt P33681)
CD86 (Homo sapiens) = CD86 (Homo sapiens) (UniProt P42081)
[1] = molecular target: PVR (CD155) (Homo sapiens) (UniProt P15151)
UniProt P15151, sequence (P15151 21-343): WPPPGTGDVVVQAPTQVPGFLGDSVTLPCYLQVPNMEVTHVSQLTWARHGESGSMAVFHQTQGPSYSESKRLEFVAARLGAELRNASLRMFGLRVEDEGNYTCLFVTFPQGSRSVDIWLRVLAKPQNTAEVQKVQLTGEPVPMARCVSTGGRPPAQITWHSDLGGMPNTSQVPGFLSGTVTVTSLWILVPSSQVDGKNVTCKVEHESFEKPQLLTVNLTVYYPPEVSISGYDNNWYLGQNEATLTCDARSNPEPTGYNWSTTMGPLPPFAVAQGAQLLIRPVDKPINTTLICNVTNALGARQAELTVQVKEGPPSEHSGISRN

UniProt P42081, sequence (P42081 24-247): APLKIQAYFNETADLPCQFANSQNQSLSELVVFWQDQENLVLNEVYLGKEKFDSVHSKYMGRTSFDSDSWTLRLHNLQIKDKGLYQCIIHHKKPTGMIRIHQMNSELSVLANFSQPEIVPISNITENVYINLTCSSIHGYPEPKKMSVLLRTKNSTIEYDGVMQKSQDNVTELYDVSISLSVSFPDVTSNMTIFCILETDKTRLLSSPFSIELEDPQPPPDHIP
UniProt P33681, sequence (P33681 35-242): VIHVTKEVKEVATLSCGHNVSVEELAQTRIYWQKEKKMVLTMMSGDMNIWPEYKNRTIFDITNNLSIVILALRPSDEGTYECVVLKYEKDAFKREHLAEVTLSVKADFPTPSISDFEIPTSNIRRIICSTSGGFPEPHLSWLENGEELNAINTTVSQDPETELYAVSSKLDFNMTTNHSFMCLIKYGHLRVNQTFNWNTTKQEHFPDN

| Substance | Kd (CD80 (Homo sapiens)) | Kd (CD86 (Homo sapiens)) | Kd [1] |
| --- | --- | --- | --- |
| CD28 (from UniProt P10747) | 4 µM | 20 µM | – |
| TIGIT (from UniProt Q495A1) | – | – | 0.002 µM |
